Data published in US20070010428A1, “Inhibitors of signal transduction and activator of transcription 3” (priority 2004, published 2007).
pIC50: −log10 of the molar value.

Key:
Stat3 = Stat3 (UniProt P40763); test: fluorescence polarization competition
[1] = molecular target: Stat3 in IL-6 stimulated HepG2 hepatoma cells (UniProt P40763); test: cell-based or functional assay
Chain of Stat3 in IL-6 stimulated HepG2 hepatoma cells (P40763 2-770 limits assumed): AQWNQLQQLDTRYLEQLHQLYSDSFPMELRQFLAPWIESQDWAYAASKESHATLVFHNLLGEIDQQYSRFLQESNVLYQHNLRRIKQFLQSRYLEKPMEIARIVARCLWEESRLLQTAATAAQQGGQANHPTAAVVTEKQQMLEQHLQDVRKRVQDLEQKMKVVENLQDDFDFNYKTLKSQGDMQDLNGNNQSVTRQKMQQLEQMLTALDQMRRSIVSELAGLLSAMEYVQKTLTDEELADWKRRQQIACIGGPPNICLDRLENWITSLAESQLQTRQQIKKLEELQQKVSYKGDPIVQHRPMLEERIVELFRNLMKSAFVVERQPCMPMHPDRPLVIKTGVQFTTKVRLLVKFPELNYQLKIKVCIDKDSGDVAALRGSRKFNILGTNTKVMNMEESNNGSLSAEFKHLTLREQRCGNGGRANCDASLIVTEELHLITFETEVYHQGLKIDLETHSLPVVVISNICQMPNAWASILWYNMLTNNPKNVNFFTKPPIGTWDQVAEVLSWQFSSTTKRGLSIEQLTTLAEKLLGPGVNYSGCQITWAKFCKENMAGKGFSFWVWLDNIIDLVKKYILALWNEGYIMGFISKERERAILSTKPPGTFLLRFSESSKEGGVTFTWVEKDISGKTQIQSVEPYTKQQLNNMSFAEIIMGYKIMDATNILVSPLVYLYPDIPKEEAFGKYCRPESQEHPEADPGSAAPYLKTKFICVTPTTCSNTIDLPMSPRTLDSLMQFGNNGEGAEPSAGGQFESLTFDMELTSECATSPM

Chain of Stat3 (P40763 whole entry): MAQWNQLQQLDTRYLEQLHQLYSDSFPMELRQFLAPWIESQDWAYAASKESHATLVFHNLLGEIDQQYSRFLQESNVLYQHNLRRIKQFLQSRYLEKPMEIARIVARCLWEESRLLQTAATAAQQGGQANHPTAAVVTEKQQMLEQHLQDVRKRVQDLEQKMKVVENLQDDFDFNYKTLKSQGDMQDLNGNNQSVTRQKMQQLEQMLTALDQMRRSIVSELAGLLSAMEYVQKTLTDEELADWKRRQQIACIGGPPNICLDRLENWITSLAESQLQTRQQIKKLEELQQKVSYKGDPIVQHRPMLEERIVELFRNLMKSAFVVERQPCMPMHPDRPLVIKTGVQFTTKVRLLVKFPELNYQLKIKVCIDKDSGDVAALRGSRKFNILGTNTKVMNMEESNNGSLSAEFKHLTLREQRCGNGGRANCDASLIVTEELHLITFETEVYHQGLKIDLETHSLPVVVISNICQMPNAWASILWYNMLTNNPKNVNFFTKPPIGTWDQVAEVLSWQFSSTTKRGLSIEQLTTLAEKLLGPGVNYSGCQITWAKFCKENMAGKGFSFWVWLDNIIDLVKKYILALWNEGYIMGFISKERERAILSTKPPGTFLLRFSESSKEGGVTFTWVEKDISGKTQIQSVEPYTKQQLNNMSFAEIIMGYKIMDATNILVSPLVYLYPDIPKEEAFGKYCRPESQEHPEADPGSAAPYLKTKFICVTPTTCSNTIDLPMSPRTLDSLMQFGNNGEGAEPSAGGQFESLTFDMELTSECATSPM

pIC50 (Stat3) | Substance | other results
6.70 | Ac-pTyr-Leu-methanoPro-Gln-Thr-NH2 (14, DRCIV-39B) | 
6.96 | pCinn-Cha-methanoPro-Gln-NHBn (15, PM-84D) | 
 | Ac-pTyr-Leu-Pro-Gln-Thr-Val-mts (peptide) | IL-6 stimulated luciferase reporter under the Stat3-responsive alpha2-macroglobulin promoter, HEPG2 cells, peptide at 50 and 100 µM (% of that of IL-6) [1]: 60 to 70
6.96 | pCinn-Leu-Pro-Gln-Thr-NH2 (5, PM-50D) | 
7.30 | pCinn-Cha-Pro-Gln-NHBn (7, PM-66D) | 
5.70 | F2PmCinn-Cha-Pro-Gln-NHBn (8, PM-88D) | 
 | F2PmCinn-Leu-Pro-Gln-Thr-Val-Ala-Ala-Val-Leu-Leu-Pro-Val-Leu-Leu-Ala-Ala-Pro-NH2 (peptide; the values are: luciferase activity remaining) | IL-6 stimulated luciferase reporter under the Stat3-responsive alpha2-macroglobulin promoter, HEPG2 cells, peptide at 50 µM [1]: 50%; IL-6 stimulated luciferase reporter under the Stat3-responsive alpha2-macroglobulin promoter, HEPG2 cells, peptide at 100 µM [1]: 25%
6.70 | Ac-pTyr-Haic-Gln-Thr-NH2 (10, DRCIV-35B) | 
7.00 | pInd-Cha-Pro-Gln-NHBn (9, PM-67D) | 
